Measured values from article PMC10325903, “Prediction of cooperative homeodomain DNA binding sites from high-throughput-SELEX data”.

B1: Bsx_SELEX_1+1 (dsDNA)
DNA 1: TATGAAATCAATTATCGTCATTAAGTTCGTAGTGCGGGCGTGGCT
DNA 2: AGCCACGCCCGCACTACGAACTTAATGACGATAATTGATTTCATA
B2: Bsx_SELEX_1 (dsDNA)
DNA 1: TATGAAATCAATTATCTCATTAAGTTCGTAGTGCGGGCGTGGCT
DNA 2: AGCCACGCCCGCACTACGAACTTAATGAGATAATTGATTTCATA

Biological target: Bsx HD fragment (UniProt Q810B3 84-193)
Experiment: EMSA; EMSA, 34 nM IRDye700 probe, room temperature 20 min, 4% polyacrylamide gel 150 V 2 h; binding buffer as in cited ref 35 (not given)
Details: protein: recombinant; tags: N-terminal 6xHis (pET-14b or pET-14P; may be cleaved); chain copies: 2; label: 5' IRDye700 on bottom strand; blunt

Bsx HD fragment, sequence (Q810B3 84-193): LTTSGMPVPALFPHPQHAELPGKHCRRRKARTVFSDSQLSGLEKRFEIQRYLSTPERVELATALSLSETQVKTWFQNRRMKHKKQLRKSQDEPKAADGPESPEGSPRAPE

Binder | cooperativity factor (tau) [Tau cooperativity factor]
B1 | 0.9 ± 0.3
B2 | 9.8 ± 1
